Patent publication US20030190679A1 (Takeda / Millennium, published 2003)

B1: CARD domain of CARD-12 (residues 1-83) fused to the activation domain of pCMV-AD (plasmid pCMV-CARD-12-CARD/AD) (other, not shown: large carriers)
chain: MNFIKDNSRALIQRMGMTVIKQITDDLFVWNVLNREEVNIICCEKVEQDAARGIIHMILKKGSESCNLFLKSLKEWNYPLFQD
B2: T7-tagged procaspase-9 (enzyme, UniProt P55211 1-416, looked up, not shown: small tags and cut ends)
chain: MDEADRRLLRRCRLRLVEELQVDQLWDALLSRELFRPHMIEDIQRAGSGSRRDQARQLIIDLETRGSQALPLFISCLEDTGQDMLASFLRTNRQAAKLSKPTLENLTPVVLRPEIRKPEVLRPETPRPVDIGSGGFGDVGALESLRGNADLAYILSMEPCGHCLIINNVNFCRESGLRTRTGSNIDCEKLRRRFSSLHFMVEVKGDLTAKKMVLALLELAQQDHGALDCCVVVILSHGCQASHLQFPGAVYGTDGCPVSVEKIVNIFNGTSCPSLGGKPKLFFIQACGGEQKDHGFEVASTSPEDESPGSNPEPDATPFQEGLRTFDQLDAISSLPTPSDIFVSYSTFPGFVSWRDPKSGSWYVETLDDIFEQWAHSEDLQSLLLRVANAVSVKGIYKQMPGCFNFLRKKLFFKTS
notes: Transiently overexpressed in 293T cells

Columns and labels:
[1] = biological target: CARD domain of CARD-12 fused to the DNA-binding domain of pCMV-BD (self-association partner) (human); test: cell-based or functional assay
[2] = biological target: CARD domain of CARD-5 (ASC) fused to the DNA-binding domain of pCMV-BD (UniProt Q9ULZ3 107-195); test: cell-based or functional assay
CARD domain of CARD-5 (ASC) fused to the DNA-binding domain of pCMV-BD, sequence (Q9ULZ3 whole entry, the tested form may be a part): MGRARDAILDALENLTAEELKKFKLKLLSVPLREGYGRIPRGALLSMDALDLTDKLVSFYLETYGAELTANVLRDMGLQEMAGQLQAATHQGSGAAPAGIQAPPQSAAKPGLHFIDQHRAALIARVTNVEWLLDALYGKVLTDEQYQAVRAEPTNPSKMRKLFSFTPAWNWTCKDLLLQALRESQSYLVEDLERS

myc-tagged CARD-12 = biological target: T1, myc-tagged CARD-12 (human, UniProt Q9NPP4 1-1024); test: co-immunoprecipitation from 293T lysates (IP anti-T7, blot anti-myc)
T1 construct: Transiently overexpressed in 293T cells
Experimental: FIGS. 10A-10C depict the results of co-immunopreciptation analysis. FIG. 10A: After 24 hrs, extracts were prepared and immunoprecipitated (IP) with a monoclonal antibody to the T7 epitope. The immunoprecipitates were analyzed by SDS-PAGE and immunoblotted with an anti-myc polyclonal antibody. FIG. 10B: The cellular extracts were also immunoblotted (WB) with anti-T7 antibody. FIG. 10C: Extracts were also immunoprecipitated with a monoclonal antibody to myc, followed by WB with an anti-myc polyclonal antibody.
An additional mechanism by which CARD-12 may cause cell death is by the activation of upstream caspases via a CARD/CARD interaction. The proform of caspase-1 and caspase-9 both contain an N-terminal CARD. Therefore, caspase-1 and caspase-9 were investigated as possible CARD-12 signaling partners following transient overexpression in cells. Briefly, 293T cells transfected with plasmids were lysed in 50 mM Tris, pH 8.0, 120 mM NaCl, 1 mM EDTA, 0.5% Nonidet P-40 buffer and incubated with either a T7 (Sigma) or myc monoclonal antibody (SantaCruz Biotechnology, Inc.). The immune complexes were precipitated with protein G-Sepharose (Amersham Pharmacia Bio), washed extensively, and then subjected to SDS-polyacrylamide gel electrophoresis and immunoblotted with polyclonal antibody to myc (SantaCruz). […]

Binder	relative luciferase activity (mammalian two-hybrid) [1] [fold]	relative luciferase activity (mammalian two-hybrid) [2] [fold]	binding result (myc-tagged CARD-12)
B1	30	10	
B2			no binding
